Measured values reported in US20070248607A1, “NEGATIVE IMMUNOMODULATION OF IMMUNE RESPONSES BY NKG2D-POSITIVE CD4+ CELLS” (priority 2005, published 2007).
Entries after “also recorded” stand apart in the source; their conditions may differ. Peptide text beside a SMILES is read from it.

Legend:
[1] = tested on: sMICA shedding by Hela and A375 cells; assay: Shedding of sMICA by tumor cell lines, ELISA for sMICA; assay type: cell-based; settings: pharmacological inhibitors; U266, Hela, A375, HCT116 and Lovo cells; concentration-dependent; ELISA
[2] = target: T1, recombinant soluble MICA (rsMICA), unglycosylated, produced in bacteria; ectodomain-only MICA
T1 chain: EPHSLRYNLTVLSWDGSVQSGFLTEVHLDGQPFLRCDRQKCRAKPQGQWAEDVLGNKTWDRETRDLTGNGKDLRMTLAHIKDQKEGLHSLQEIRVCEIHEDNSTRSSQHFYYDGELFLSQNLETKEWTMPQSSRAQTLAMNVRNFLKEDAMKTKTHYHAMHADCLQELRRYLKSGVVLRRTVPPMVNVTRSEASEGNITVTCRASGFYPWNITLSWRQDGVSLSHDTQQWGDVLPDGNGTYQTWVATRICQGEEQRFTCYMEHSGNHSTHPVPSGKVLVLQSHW

[3] = target: the molecule itself; assay: size exclusion chromatography (self-association)
MICA [4] = target: T2, MICA (Homo sapiens, UniProt Q29983); assay: ERP5 activity assay, disulfide reduction (non-reducing SDS-PAGE); assay type: biochemical; settings: ectodomain MICA substrate, room temperature, 1 h or 3 h, no reducing agent
T2 sequence (Q29983 24-299): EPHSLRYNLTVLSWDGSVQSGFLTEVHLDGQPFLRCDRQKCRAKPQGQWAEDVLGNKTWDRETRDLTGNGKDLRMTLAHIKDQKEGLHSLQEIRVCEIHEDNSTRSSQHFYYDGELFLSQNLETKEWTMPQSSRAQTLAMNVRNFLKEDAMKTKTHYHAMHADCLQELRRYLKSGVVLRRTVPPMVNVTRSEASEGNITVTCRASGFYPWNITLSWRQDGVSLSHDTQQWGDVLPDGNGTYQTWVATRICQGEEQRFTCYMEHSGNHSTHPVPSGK

MICA [5] = target: T3, MICA (Homo sapiens, UniProt Q29983); assay: as above; assay type: biochemical; settings: isolated α3 domain (residues 187-274)
T3 sequence (Q29983 210-297): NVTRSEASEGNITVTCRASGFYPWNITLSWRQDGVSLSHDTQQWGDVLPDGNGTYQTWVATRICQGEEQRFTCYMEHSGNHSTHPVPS

NKG2D- CD4+ T cells = assay: CD4 T cell proliferation (CFSE dilution, [3H]thymidine incorporation); assay type: cell-based; settings: anti-CD3 activated CD4 T cell cultures
Procedure: (§1) For analysis of CD4^+ T cell proliferation in conjunction with NKG2D expression, 1×10^7 freshly isolated pure CD4^+ T cells/ml PBS were labeled with an equal volume of 2 μM CFSE (Molecular Probes) for 8 min at room temperature. CFSE was quenched with an equal volume of fetal calf serum for one min followed by three washes with AIM-V medium. CFSE labeled cells were then plated, stimulated and phenotypically analysed as described above. Additional ligands tested in this experimental setting included any of either C1R-MICB, ULBP-1, -2, -3, 4, or -5 transfectants, recombinant soluble MICB, or 5% soluble MIC containing serum from a MIC+ tumor patient and MIC− control serum. To test ligand specificity, ligand containing cultures were treated with either 10 μg/ml 6D4 (anti-MICA/B), 10 μg/ml 3F1 (anti-ULBP-1), or appropriately diluted isotype control immunoglobulins. In some experiments, ligand was replaced by solid-phase anti-NKG2D (1D11) at the concentrations ranging from 5-50 ng/ml. In some experiments, ligand/solid-phase mAb were added on day 1, 2 or 3 after the initiation of culture.
To assess inhibition of CD4^+ T cell proliferation by standard [^3H]thymidine incorporation experiments, freshly isolated pure CD4^+ T cells were plated at 1×10^5 cells/well in a 96 well flat bottom plate containing titrated cross-linked anti-CD3 (see above) or isotype control Ig with or without titrated recombinant soluble MIC. After 72 hrs at 37° C., plates were pulsed with 3 μCi of [^3H]thymidine (Perkin Elmer) for 12 hrs. Plates were harvested and samples analysed by liquid scintillation using Uni-Filter GF/C plates and a TopCount Counter (both from Packard). Counts from triplicates were averaged.

NKG2D+ CD4+ T cells = assay: NKG2D expression and expansion of activated CD4 T cells; assay type: cell-based; settings: anti-CD3 activated CD4 T cell cultures
Procedure: For the analysis of NKG2D expression in activated CD4 T cells, freshly isolated pure CD4^+ T cells were plated at 0.3×10^6/2 ml AIM-V medium (Gibco)/well in 24 well plates for various periods of time with or without the presence of mitogenic stimuli and/or the presence of NKG2D ligands. Mitogenic stimuli included either cross-linked anti-CD3 (plates were first coated with AffiniPure F(ab′)2 fragment goat anti-mouse IgG1, Fcγ fragment specific (Jackson ImmunoResearch Laboratories, Inc.) at 10 μg/ml in PBS over night at 4° C. followed by a 4 hr room temperature incubation with anti-CD3 (OKT3, Orthoclone, Ortho Biotech Products, L.P.) at 50 ng/ml (if not indicated otherwise), PHA (5 μg/ml), or PMA/Ionomycin. Ligand additions consisted of either irradiated CLR-MICA and control transfectants at a T cell:transfectant ratio of 5:1, or recombinant soluble MICA at 25 ng/ml if not indicated otherwise. Cells were harvested at various time points after the initiation of culture and tested for NKG2D, CD4 and CD3 coexpression using directly conjugated mAbs for standard three color flow cytometry.
as §1

[6] = target: T4, MICA tetramer (recombinant MICA*001, residues 1-276, produced in transfected 293T cells, conjugated with … (human, UniProt Q29983 24-299, highly glycosylated (293T cells); conjugated with PE-streptavidin); assay: flow cytometry, PE-streptavidin tetramers on NKL cells
T4 construct: Tags from the Invitrogen expression system are not described; also called MICA tetramers; MICA ligand tetramers
T4 sequence: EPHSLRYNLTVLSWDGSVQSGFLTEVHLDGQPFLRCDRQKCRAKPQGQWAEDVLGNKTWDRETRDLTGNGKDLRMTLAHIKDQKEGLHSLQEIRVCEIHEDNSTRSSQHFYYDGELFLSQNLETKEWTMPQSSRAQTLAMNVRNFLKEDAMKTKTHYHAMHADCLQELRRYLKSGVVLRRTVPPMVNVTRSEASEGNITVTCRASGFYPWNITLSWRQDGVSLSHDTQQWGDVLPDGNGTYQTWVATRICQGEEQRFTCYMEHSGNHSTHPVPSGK

CC[C@H](C)[C@H](N)C1=N[C@H](C(=O)N[C@@H](CC(C)C)C(=O)N[C@H](CCC(=O)O)C(=O)N[C@H](C(=O)N[C@H]2CCCCNC(=O)[C@H](CC(N)=O)NC(=O)[C@@H](CC(=O)O)NC(=O)[C@H](Cc3cnc[nH]3)NC(=O)[C@@H](Cc3ccccc3)NC(=O)[C@H]([C@@H](C)CC)NC(=O)[C@@H](CCCN)NC2=O)[C@@H](C)CC)CS1 [bacitracin] (HELM PEPTIDE1{[CC[C@H](C)[C@H](N)C1=N[C@H](C(=O)[*:2])CS1].L.[dE].I.K.[NCCC[C@@H](N[*:1])C(=O)[*:2]].I.[dF].H.[dD].N}$PEPTIDE1,PEPTIDE1,5:R3-11:R2$$$V2.0)
shedding of sMICA [1]: markedly reduced; also recorded: Inhibition of sMICA shedding; also recorded: reduce shedding of sMICA

O=C(O)c1cc(SSc2ccc([N+](=O)[O-])c(C(=O)O)c2)ccc1[N+](=O)[O-] [DTNB, 5,5-dithiobis-(2-nitrobenzoic acid)]
shedding of sMICA [1]: markedly reduced; also recorded: Inhibition of sMICA shedding; also recorded: reduce shedding of sMICA

B1: ERP5 fragment 1-118 (N-terminal thioredoxin-like domain), bacterially produced, N-terminal hexahistidine (enzyme, UniProt Q15084 20-137, looked up)
chain: LYSSSDDVIELTPSNFNREVIQSDSLWLVEFYAPWCGHCQRLTPEWKKAATALKDVVKVGAVDADKHHSLGGQYGVQGFPTIKIFGSNKNRPEDYQGGRTGEAIVDAALSALRQLVKD
notes: Numbers count on the mature protein; also called N-terminal ERP5 polypeptide fragment; not shown: N-terminal hexahistidine tract
disulfide bond reduction of MICA (non-reducing SDS-PAGE) [2]: only the N-terminal domain displayed functional activity
binding result [3]: no binding

B2: ERP5 fragment 1-118 C36S mutant (protein)
chain: LYSSSDDVIELTPSNFNREVIQSDSLWLVEFYAPWSGHCQRLTPEWKKAATALKDVVKVGAVDADKHHSLGGQYGVQGFPTIKIFGSNKNRPEDYQGGRTGEAIVDAALSALRQLVKD
disulfide bond reduction of MICA (non-reducing SDS-PAGE) [2]: C36S showed no activity on MICA substrate

B3: C36S: C36S active site mutant of ERP5 fragment 1-118 (protein)
chain: LYSSSDDVIELTPSNFNREVIQSDSLWLVEFYAPWSGHCQRLTPEWKKAATALKDVVKVGAVDADKHHSLGGQYGVQGFPTIKIFGSNKNRPEDYQGGRTGEAIVDAALSALRQLVKD
modifications: left off: small tags and cut ends
reduction of MICA disulfide bonds (MICA [4]): no activity

B4: C39S: C39S active site mutant of ERP5 fragment 1-118 (protein)
chain: LYSSSDDVIELTPSNFNREVIQSDSLWLVEFYAPWCGHSQRLTPEWKKAATALKDVVKVGAVDADKHHSLGGQYGVQGFPTIKIFGSNKNRPEDYQGGRTGEAIVDAALSALRQLVKD
modifications: left off: small tags and cut ends
reduction of MICA disulfide bonds (MICA [4]): formed a trapped disulfide-linked intermediate
reduction of MICA disulfide bonds (MICA [4]; listed as C39S mutant of ERP5 fragment 1-118): disulfide-linked heterodimers
reduction of the MICA α3 domain disulfide bond (MICA [5]; listed as ERP5 1-118 C39S mutant polypeptide): reduces the α3 domain disulfide bond of MICA
reduction of the MICA α3 domain disulfide bond (MICA [5]; listed as ERP5 1-118 polypeptide fragment with the C39S mutation): unresolved mixed disulfide heterodimer

B5: ERP5 fragment 1-118: N-terminal thioredoxin-like domain fragment of ERP5, residues 1-118 (protein)
chain: LYSSSDDVIELTPSNFNREVIQSDSLWLVEFYAPWCGHCQRLTPEWKKAATALKDVVKVGAVDADKHHSLGGQYGVQGFPTIKIFGSNKNRPEDYQGGRTGEAIVDAALSALRQLVKD
modifications: left off: small tags and cut ends
reduction of MICA disulfide bonds (MICA [4]): partially reduced

B6: soluble MIC: recombinant soluble MIC ligand of NKG2D (protein)
chain: EPHSLRYNLTVLSWDGSVQSGFLTEVHLDGQPFLRCDRQKCRAKPQGQWAEDVLGNKTWDRETRDLTGNGKDLRMTLAHIKDQKEGLHSLQEIRVCEIHEDNSTRSSQHFYYDGELFLSQNLETKEWTMPQSSRAQTLAMNVRNFLKEDAMKTKTHYHAMHADCLQELRRYLKSGVVLRRTVPPMVNVTRSEASEGNITVTCRASGFYPWNITLSWRQDGVSLSHDTQQWGDVLPDGNGTYQTWVATRICQGEEQRFTCYMEHSGNHSTHPVPSGK
proliferation of NKG2D- CD4+ T cells (NKG2D- CD4+ T cells): dramatically inhibited
expansion / proliferation of NKG2D+ CD4+ T cells (NKG2D+ CD4+ T cells): enhanced

B7: ERP5 fragment 135-421, bacterially produced, N-terminal hexahistidine (enzyme, UniProt Q15084 154-440, looked up)
chain: SDSSSKKDVIELTDDSFDKNVLDSEDVWMVEFYAPWCGHCKNLEPEWAAAASEVKEQTKGKVKLAAVDATVNQVLASRYGIRGFPTIKIFQKGESPVDYDGGRTRSDIVSRALDLFSDNAPPPELLEIINEDIAKRTCEEHQLCVVAVLPHILDTGAAGRNSYLEVLLKLADKYKKKMWGWLWTEAGAQSELETALGIGGFGYPAMAAINARKMKFALLKGSFSEQGINEFLRELSFGRGSTAPVGGGAFPTIVEREPWDGRDGELPVEDDIDLSDVELDDLGKDEL
notes: range 135-421; Numbers count on the mature protein; also called ERP5 135-421; not shown: N-terminal hexahistidine tract
disulfide bond reduction of MICA (non-reducing SDS-PAGE) [2]: only the N-terminal domain displayed functional activity
binding result [3]: no binding

B8: soluble MICB: recombinant soluble MICB, NKG2D ligand (protein)
chain: EPHSLRYNLMVLSQDGSVQSGFLAEGHLDGQPFLRYDRQKRRAKPQGQWAEDVLGAETWDTETEDLTENGQDLRRTLTHIKDQKGGLHSLQEIRVCEIHEDSSTRGSRHFYYNGELFLSQNLETQESTVPQSSRAQTLAMNVTNFWKEDAMKTKTHYRAMQADCLQKLQRYLKSGVAIRRTVPPMVNVTCSEVSEGNITVTCRASSFYPRNITLTWRQDGVSLSHNTQQWGDVLPDGNGTYQTWVATRIRQGEEQRFTCYMEHSGNHGTHPVPSGK
proliferation of NKG2D- CD4+ T cells (NKG2D- CD4+ T cells): Growth inhibition

B9: NKG2D (on NKL NK cells and on CD4+ T cells) (receptor, human, UniProt P26718 1-216, looked up)
chain: MGWIRGRRSRHSWEMSEFHNYNLDLKKSDFSTRWQKQRCPVVKSKCRENASPFFFCCFIAVAMGIRFIIMVTIWSAVFLNSLFNQEVQIPLTESYCGPCPKNWICYKNNCYQFFDESKNWYESQASCMSQNASLLKVYSKEDQDLLKLVKSYHWMGLVHIPTNGSWQWEDGSILSPNLLTIIEMQKGDCALYASSFKGYIENCSTPNTYICMQRTV
notes: whole, on cells; also called NKG2D receptor
binding result [6]: binds
